From patent publication US20110053865A1 (Ablynx, published 2011)
Several values for one entry are separate records, joined by “and”; a condition that tells them apart may be missing. Identical values can stand only once. Like-named read-outs stand apart in the source and are kept apart here.

How the values were obtained:
Experiment in all cases: cell-based or functional assay
[1] = molecular target: T1, recombinant human IL-23 (p19/p40) (human, UniProt Q9NPF7 20-189; P29460 23-328)
T1 sequence (looked up) 1: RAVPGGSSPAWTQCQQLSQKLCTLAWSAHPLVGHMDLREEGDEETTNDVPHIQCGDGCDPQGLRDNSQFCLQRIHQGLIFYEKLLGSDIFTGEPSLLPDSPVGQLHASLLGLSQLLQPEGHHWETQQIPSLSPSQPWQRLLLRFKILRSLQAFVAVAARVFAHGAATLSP
T1 sequence (looked up) 2: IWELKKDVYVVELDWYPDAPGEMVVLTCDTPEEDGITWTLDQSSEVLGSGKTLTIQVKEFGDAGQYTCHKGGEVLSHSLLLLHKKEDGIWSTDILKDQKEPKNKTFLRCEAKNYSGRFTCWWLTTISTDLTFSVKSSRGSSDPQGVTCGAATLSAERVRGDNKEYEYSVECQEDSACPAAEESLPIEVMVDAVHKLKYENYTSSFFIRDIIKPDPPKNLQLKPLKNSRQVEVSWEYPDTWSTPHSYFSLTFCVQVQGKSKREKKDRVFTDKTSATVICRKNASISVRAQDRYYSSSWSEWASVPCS

[2] = molecular target: T1, recombinant human IL-23 (p19/p40); remark: listed apart in the source
cynomolgus IL-23 = cynomolgus IL-23 (cynomolgus)
[3] = molecular target: T2, native human IL-23 (supernatant of SAC-stimulated THP-1 cells) (human, UniProt Q9NPF7 20-189; P29460 23-328)
T2 sequence (looked up) 1: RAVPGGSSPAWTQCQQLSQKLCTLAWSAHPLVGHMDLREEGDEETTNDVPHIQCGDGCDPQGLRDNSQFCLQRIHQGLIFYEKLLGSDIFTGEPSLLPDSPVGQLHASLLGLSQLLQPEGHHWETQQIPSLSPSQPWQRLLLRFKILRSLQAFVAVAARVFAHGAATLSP
T2 sequence (looked up) 2: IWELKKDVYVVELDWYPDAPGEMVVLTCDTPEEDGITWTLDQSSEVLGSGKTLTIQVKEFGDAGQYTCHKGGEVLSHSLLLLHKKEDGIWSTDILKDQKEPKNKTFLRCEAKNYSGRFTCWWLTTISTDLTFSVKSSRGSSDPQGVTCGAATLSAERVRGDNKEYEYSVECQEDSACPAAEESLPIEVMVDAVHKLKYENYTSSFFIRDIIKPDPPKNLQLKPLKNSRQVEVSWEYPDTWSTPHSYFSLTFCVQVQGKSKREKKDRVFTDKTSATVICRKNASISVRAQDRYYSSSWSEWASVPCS

B1: P23IL119A3-35GS-81G2 (bispecific antibody)
chain: EVQLVESGGGLVQAGGSLRLSCAASGRIFSLPASGNIFNLLTIAWHRQAPGMQRELVATINSGSRTNYADSVKGRFTISRDNAQKTVYLQMNNLKPEDTAVYYCQTSGSGSPNFWGQGTQVTVSSGGGGSGGGGSGGGGSGGGGSGGGGSGGGGSGGGGSEVQLVESGGGLVQPGGSLRLSCIASGLPFSTKSMGWFRQAPGKEREFVARISPGGTSRYYGDFVKGRFAISRDNAKNTTWLQMNSLKAEDTAVYYCASGERSTYIGSNYYRTNEYDYWGTGTQVTVSS
- IC50, splenocyte assay, 19 pM hIL-23 [1]: 14 pM
- IC50, splenocyte assay, 19 pM hIL-23 [2]: 12 pM
- IC50, splenocyte assay, 3.8 pM cIL-23 (cynomolgus IL-23): 13 pM
- IC50, splenocyte assay, 19 pM native hIL-23 (Expt 1) [3]: 76 pM and 153 pM
